Reference: article PMC10586629, “Single B cell transcriptomics identifies multiple isotypes of broadly neutralizing antibodies against flaviviruses” (PLOS Pathogens, 2023)

Target: T1, wild-type DENV2 16681 prM/E expressed in HEK-293T cells (Dengue virus 2, strain 16681, UniProt P29990)
T1 construct: also called WT DENV2 E protein; wild-type prM/E
Assay: flow cytometry on cells
Conditions: one partner purified

B1: F25.S02 IgG1 (antibody, V domains shown)
VH: QVQLVQSGAEVKKPGSSAKVSCKASGGTFSSYAISWVRQAPGQGLEWMGSIMPIFGTVNYAQKFQGRVTITADESTSTAYMELSRLRSEDTAVYFCARGWGGNYRSADLWIYFDLWGQGTLVTVSS
VL: QSALTQPRSVSGSPGQSVTISCTGTSSDVGGYKYVSWYQQHPGKAPKLMIYDVTKRPSGVPDRFSGSKSGNTASLTISGLQADDEADYYCCSYAGSYTHVVFGGGTKLTVL
binding result: binds
